For test [1], the target named is CrAPE1 C128S mutant, recombinant soluble region of the DUF2854 of APE1 from Chlamydomonas reinhardtii (Chlamydomonas reinhardtii). Put plainly: SEC-MALS.
For test [2] the target is unchanged. Put plainly: MST.
For test [3], the target named is Plastid Copper Chaperone 1 (PCC1) from Chlamydomonas reinhardtii, recombinant, produced in the presence of Cu (Chlamydomonas reinhardtii).

By stoichiometry N is commonly meant a count of units in the complex or per binding partner. As usually defined, the Kd is the concentration at which binding is half-saturated.

As for “CrAPE1 C128S mutant, recombinant soluble region of the DUF2854 of APE1 from Chlamydomonas reinhardtii (domain or fragment)”, in test [1], the stoichiometry N was determined as 2.
“Plastid Copper Chaperone 1 (PCC1) from Chlamydomonas reinhardtii, recombinant, produced in the presence of Cu (natural protein)”: in test [2], the Kd was found to be 38.6 nM. For the same substance, the stoichiometry N in test [3] was 2.

Values taken from paper doi:10.1101/2025.07.25.666786.
